Experimental data taken from patent CN108822212A (UNIV BEIJING, dated 2018).

How the values were obtained:
[1] = molecular target: 全长KIT WT (Ba/F3稳定细胞系表面) (human) (UniProt P10721); experiment: cell-based or functional assay
[2] = molecular target: 全长KIT ITD (Ba/F3稳定细胞系表面) (human) (UniProt P10721); experiment: cell-based or functional assay
[3] = molecular target: T1, KIT ITD D4-5蛋白 (human, UniProt P10721 309-519); experiment: SPR, Biacore T200, 3G2 amine-coupled on CM5, KIT ITD D4-5 as analyte (3.125-100 nM)
T1 chain: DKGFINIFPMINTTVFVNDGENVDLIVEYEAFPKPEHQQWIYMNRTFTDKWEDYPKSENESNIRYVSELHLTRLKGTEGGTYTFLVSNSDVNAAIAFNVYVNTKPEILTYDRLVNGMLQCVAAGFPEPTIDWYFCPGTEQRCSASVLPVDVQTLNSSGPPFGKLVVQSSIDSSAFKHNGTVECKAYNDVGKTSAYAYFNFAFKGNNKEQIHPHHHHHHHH

[4] = molecular target: T2, KIT WT D4-5蛋白 (human, UniProt P10721 309-519, limits assumed); experiment: SPR, Biacore T200, 3G2 amine-coupled on CM5, KIT WT D4-5 as analyte (3.125-100 nM)
T2 construct: domain: 第4、5个Ig结构域 (D4-5); Expressed in HEK293 cells by BacMam; also called KIT WT的第4、5个结构域

B1: 单克隆抗体3G2 (antibody, V domains shown)
VH: EVQLQESGPGLVKPSQSLSLTCTVAGYSITSDYAWNWIRQFPGNRLEWVGYISYSGSTSYNPSLKSRISITRDTSQNQFFLQLNSVTTEDTATYYCTRWRYRYTLAMDYWGQGTSVTVSS
VL: DIVLTQSPAITAASLGQKVTITCSASSSISYIHWYQQKSGTSPKPWIYEIYKLASGVPPRFSGSGSGTSYSLTISSMEAEDAAIYYCQQWNYPFTFGSGTKLEIKR
notes: also called 3G2抗体; not shown: hinge and Fc of the mouse hybridoma antibody
- percent apoptosis of KIT WT Ba/F3 cells with 3G2 [1]: 10.9%
- IC50 of cell survival (CCK8) of KIT ITD Ba/F3 cells [2]: 1.29 nM
- percent of KIT ITD Ba/F3 cells in early apoptosis at 10 nM 3G2 [2]: 41%
- percent of KIT ITD Ba/F3 cells in late apoptosis at 10 nM 3G2 [2]: 14.5%
- percent of KIT ITD Ba/F3 cells in programmed apoptosis at 10 nM 3G2 (Annexin V-FITC/7-AAD) [2]: 55.5%
- Kd [3]: 17.1 nM
- Kd [4]: 154 nM
